# Measurements: the nanobody polyreactivity screen of Harvey et al. (2022)
# Assay: yeast display, Sf9 membrane polyspecificity reagent, FACS + sequencing; frameworks hold sequencing errors
# Outline: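 Galactose-induced (36–48 hours) yeast carrying a synthetic nanobody display library were exposed to 10% biotinylated, detergent-solubilized Sf9 membrane reagent at 4 °C for 1 hour. FACS followed streptavidin microbead enrichment, using low and high (top ~1%) gates for expression (anti-HA) and reagent binding (streptavidin). Colony PCR, MiSeq 2 × 250 sequencing and CDR-length filtering followed. Labels for polyreactivity reflect the gate of origin.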
sequence,measurement,value
QVKLVESGGGLVQAGGSLRLSCAASGFIFSNNAMGWYRQAPGKEMELVAAITWNGGRTYYADSVKGRFTISRDNAKNTVYLQMNSLKQVDTAVYYCAAGRYYPLFYYWGLGTQVTVSS,polyreactivity (PSR sort gate),high polyreactivity
QGQLVESGGGLVQAGGSLRLSCAASGFTFKFYAMGWYRQAPGKEREFVAAISGSGGSTYYAHSVKGRFTISRDNAKNTVYLQMNSLKPEDTAVYYCAAEVPGKPYGRSRYSFRHDYWGQGTQVTVSS,polyreactivity (PSR sort gate),low polyreactivity
QVQLVESGGGLVQAGGSLRLSCAASGRTFFVYDMGWYRQAPGKERELVAAISRGGSTNYADSVKGRFTISRDNAKNTVYLQMNSLKPEDTAVYYCAASVQYRRLKKFYYWGQGTQVTVSS,polyreactivity (PSR sort gate),high polyreactivity
QVQLVESRGGLVQAGGSLRLSCAASGSTFYIYAMGWYRQAPGKERELVAAIDWNDGSTYYADSVKGRFTISRDNAKNTVYLQMNSLKPEDTAVYYCAAAIYIYRDGTYDYWGQGTQVTVSS,polyreactivity (PSR sort gate),high polyreactivity
QVQLVESVGGLVQAGGSLRLSCAASGFTFQYYALGWYRQAPGKERELVAAISWTGGRTYYADSVKGRFTISRDNAKNTVYLQMNSLKPEDTAVYYCNKVLYYYNSGEYDYWGQGTQVTVSS,polyreactivity (PSR sort gate),high polyreactivity
QVQLVESGGGLVQAGGSLRLSCAASGFTFVSNDMGWYRQAPGKERELVAAIRYRGGDTYYADSVKGRFTISRDNAKNTVYLQMNSLKPEDTAVYYCAVDVATYTAGWYYHGYDYWGQGTQVTVSS,polyreactivity (PSR sort gate),low polyreactivity
QVQLVESGGGLVQAGGSLRLSCAASGSIFPVYAMGWYRQAPGKEREFVARIRFSGGRTYYADSVKGRFTISRDNAKNTVYLQMNSLKPEDTAVYYCAKAQYRGRYGYWGQGTQVTVSS,polyreactivity (PSR sort gate),high polyreactivity
QVQLQESGGGLVQAGGSLRQSCAASGSISATDSVGWYRQAPGKEREFVATIDGGANTNYADSVKGRFTISRDNAKNTVYLQMNSLKPEDTAVYYCAKDSQTARDFDYWGQGTQVTVSS,polyreactivity (PSR sort gate),low polyreactivity
QVQLVESGGGLVQAGGSLRLSCADSGSTSYDYAMGWYRQAPGKERELVAAISGSSSTTYYADSVKGRFTISRDNAKNTVYLQMNSLKPEDTAVYYCNAVTTTGSGYGYWGQGTQVTVSS,polyreactivity (PSR sort gate),low polyreactivity
QVQLVESGGGLVQAGGSLRLSCAASGSIFRQYAMGWYRQAPGKERELVAAINYSGGNTYYADSVKGRFTISRDNAKNTVYLQMNSLKPEDTAVYYCAADSVRHYWWAYYYWGQGTQVTVSS,polyreactivity (PSR sort gate),low polyreactivity
QVQLVESGGGLVQAGGSLRLSCAASGYTFGDYAMGWYRQAPGKERELVASITQTGGSTYADSVKGRFTISRDNAKNTVYLQMNSLKPEDTAVYYCNARYPWWESLRQTDRGKGFDYWGQGTQVTVSS,polyreactivity (PSR sort gate),low polyreactivity
QVQLVESGGGLVQAGGSLRLSCAASGLTFPLYVMGWYRQAPGKARELVATITGGGSTTYADSVKGRFTISRDNAKNTVYFQMNSLKPEDTAVYYCAADFVFVATPLRYDYWGPGTQVTVSS,polyreactivity (PSR sort gate),low polyreactivity
QDQLGESGGGLVQAGGSLRLSCPASGFTVSNNVMGWSRQAPGKERELVADITWSGDGTYYADSVKGRFTISRDNAKKSVYLQMNSLKTEDTAVYYCNARYGKEYDYWGQGTQVTVSS,polyreactivity (PSR sort gate),low polyreactivity
QVQLVESGGGLVQAGGSLRLTCAASGSTFYSNAMGWYRQAPGKERYLVAAITSRGDRTYYADSVKGRFTISRDNAKNTVYFQLNSLNPEDTAVYSCAAEQSWQGYAYYYWGQGTQVTVSS,polyreactivity (PSR sort gate),high polyreactivity
QVQLVESGGGLVQAGGSLRLSCAASVRTFKWYAMGWYRQAPGKERELVAGISRGAGRTYYADSVKWRFTMSRDNAKNTVYLQMNSLKPEDTAVYYCAAVPSYHSTSPFYYWGQGTQVTVSS,polyreactivity (PSR sort gate),high polyreactivity
QVQLVESGGGLVQAGGSLRLSSAASGSIFVNYVMGWYRQAPGKERELVADISSGGSTYYADSVKGRFTISRDNAKNTVYLQMNSLKPEDTAVYYCNAVYPYTYDYWGQGTQVTVSS,polyreactivity (PSR sort gate),low polyreactivity
QVQLVESGGGLVQAGGSLRLSCAASGFTFWTYAMGWYRQAPGKERELVAAISTSGGSTYYADSVKGRFTISRDNAKNTVYLQINSLKPEDTAVYYCAAYAIGEHFRARYGYWGQGTQVTVSS,polyreactivity (PSR sort gate),high polyreactivity
QVQLVESGGGLVQAGGSLRLSCAASGRTFRYYAMGWYRQAPGKERELVAAIRANGGSTYYADSVKGRFTISRDNAKNIVYLQMNSLKPEDTAVYYCAALYRRYPYHYDSWGQGTQVTVSS,polyreactivity (PSR sort gate),high polyreactivity
QVQLVESGGGLVQAGGSLRLSCAASGRIFYRYAMGWYRQAPGKERELVAAIRYSGGRTYYADSVKGRFTISRDNAKNTVYLQMNSLKPEDTAVYYCAARGWYKSDYWGQGTQVTVSS,polyreactivity (PSR sort gate),low polyreactivity
QVQLVESGGGLVQAGGSLRLSCAASGSTFWFYTMGWYRQAPGKERELVATITSGGSTNYADSVKGRFTISRDNAKNTVYLQMNSLKPEDTAVYYCAASSVLTNHDYWGQGTQVTVSS,polyreactivity (PSR sort gate),low polyreactivity
QVQLEESGGGLVQAGGSLRLSCAASGSIFSQYAMGWYRQAPGKERELVASITWRGGRTYYADSVKGRFTISRDNAKNTVYLQMNSLKPEDTAVYYCNRVYGAHHYYYGIGTYDYWGQGTQVTVSS,polyreactivity (PSR sort gate),high polyreactivity
QVQLVESGGGLVQAGGSLRLSCAASGSIFYGNAMGWYRQAPGKERELVAAISKRGGSTYYADSVKGRFTISRDNAKNTVYLQMNSLIPEDTAVYYCDKGSAGHTEYYYWGQGTQVTVSS,polyreactivity (PSR sort gate),high polyreactivity
QVQLVESGGGLVQAGGSLRLSCAASGRIFYYNAMGWYRQAPRKERELVASITGSGGSTYYADSVKGRFTISRDNAKNTVYLQMNSLKPEDSAVYYCAKREYLYRYYYVAKYDYWGQGTQVSVSS,polyreactivity (PSR sort gate),low polyreactivity
QVQLVESGGGLVQAGGSLRLSCAASGSTFLFYAMGWYRQAPGKEREFVDAISWSGGSTFYADSVKGRFTISRYNAKNTVYLQMNSLKPEDTAVYYCAARQDGYSGRKLYYLGQGTQVTVSS,polyreactivity (PSR sort gate),low polyreactivity
QVQLVESGGGLVQAGGSLRLSCAASGSTFDTNAMGWSRPAPGKEREWVAAITWRGGRTSYADSVKGRFTISRDNAKNTVYLQMNSLKPEDTAVYYCAAGYKFGPPAAGTFSDFDYWGQGTQVTVTS,polyreactivity (PSR sort gate),low polyreactivity
QVQLVESGGGLVQAGGSLRLSCAASGSTFKAYVMGWYRQEPAKERELVAVISRSGGTTYYADSVKGRFTISRDNAKNTVYLQMNSLKPEDTAVYYCAAQWRYQYPESLESYYWGQGTQGTVSS,polyreactivity (PSR sort gate),high polyreactivity
QVQLVESGGGLVQAGGSLRLICAASGLTFASYAMGWYRQAPGKERELVAAISSSGRTYYADSVKGRFTISRDNAKNTVYLQMNSLKPEDTAVYYCATRGLSRYYDYYYWGQGTQVTVSS,polyreactivity (PSR sort gate),high polyreactivity
QVQLVESGGGLVKAGGSLRLSCAASGRTFQVYDMGWYRQAPGKERELVAGITRAGSTYYADSVKGRFTISRDNAKNSVYLQMNRLKPEDSAVYYCAASRWHGYNYWGQGTQVTVSS,polyreactivity (PSR sort gate),high polyreactivity
QVQLVESGGGLVQAGGSLRLSCAASGRTFSWYVMGLYRQAPGKERELVAAINSNSGSTYYADSVKGRFTISRDNAKNTVYLQMNSLKPEDTAVYYCAARAKRYNVRFDYWGQGTQVTVSS,polyreactivity (PSR sort gate),high polyreactivity
QVQLVESGGGLVQAGGSLRLSCAASGSIFGSYAMGWYRQAPGKERELVADISRRGSSTYYADSVKGRFTISRDNAKNTVYLQMNSLKPEDTAVYYCNKVFARSLSSRYQAYDYWGQGTQVNVSS,polyreactivity (PSR sort gate),high polyreactivity
QVQLVESGGGLVQAGGSLRLSCAAYGSIFCIFAMGWYRQAPGKEWELVAAISSDGSTKYADSVKGRFTISRDNAKNTVYFQMNSLKPEDTAVYYCAKLKYVRIGGPKQSMALDYWGQGTQVTVSS,polyreactivity (PSR sort gate),low polyreactivity
QVQLVESGGGLVQAGGSLRLSCAASGSTLRYYAMGWYRQAPGKEREMVADITSSGNTNYADSVKGRFTISRDNAKNTVYLQMNSLKPEDTAVYYCAGDSANYQWYLSWQKDDYWGQGTQVTVSS,polyreactivity (PSR sort gate),low polyreactivity
QFQLVESGGGLVQAGGSLRLSCAASGSTFGVYALGWYRQAPGKARELVATINSGGSTNYADSVKRRFTSSRDNAKNTVYLQMTSLTPEDTAVYYCAAGPFWQDFYVYEYDYWGQGTQVTVSS,polyreactivity (PSR sort gate),low polyreactivity
QVQLVESVGGLVQAGGSLRLSCAASGITFFNYAMGWYRQAPGKERELVARINWSGGSTYYADSVTGRFTISRDNAKNTVYLQMNSLKPEDTAVYYCAARYWLPRGRRYDYWGQGTQVTVSS,polyreactivity (PSR sort gate),high polyreactivity
QVQLVESGGGLVQAGGSLRLSCAASGFIFGRNAMGWYRQAPGKERELVAGISSSGVRTFYADSVKGRFTISRDNAKNTVYLQMNSLKPEDTAVYYCATRGRVYPTKYSLDEDYWGQGTQVTVSS,polyreactivity (PSR sort gate),high polyreactivity
QDQLVESGGGLVQAGGSLRLSCAASGRTFYCYAMGGYRQAPGKDRELVAAISSGDITSYADSVKGRFTISRDNAKNTVYLQMNSVKPEDTAVYYCAAEVVAWSLYEDFKTYDYWGQGTQVTVSS,polyreactivity (PSR sort gate),low polyreactivity
QVQLVESGGGLVQAGGSLRLSCAASGSTQKYAMGWYRQAPGKERELVAAIRRTGGSTYYADSVKGRFTISRDNAKNTVYLQMNSLKPEDTAVYYCAADPYNYYVSGYDYWGQVTQVTVSS,polyreactivity (PSR sort gate),low polyreactivity
QVQLVESGGGLVQAGGSLRLSSAASGSTFFSYAMGWYRQAPGKERELVAAITRSGGSTYYADSVKGRFTISRDNAKNNVYLHMNSLTPEDTSVYYCAVLSALWRVFTERGYWGQGTQVTVSS,polyreactivity (PSR sort gate),high polyreactivity
QVQLVESGGGLVQAGGSLRLSCAASGYIFDIYAMGWYRQAPGKEMQLVAVITRSGGGTYYADSVKGRFTISRDNAKNTVYLQMNSLKPEDTAVYYCAAESFVYGGSDYDYWGQGTQVTVSS,polyreactivity (PSR sort gate),low polyreactivity
QVQLVESGGGLVQAGGSLRLRCAASGSTFRNAMGWYRQAPGKERELVAAISYSGGRTYYADSVKGRFTISRDNAKNTVYLQMNSLKPEDTAVYYCASPGVSWSTRSYYYWGQGTQVTVSS,polyreactivity (PSR sort gate),high polyreactivity
QVQLVESWGGLFQAGGSLRLRCAASGRKFYYYAMVFYIQAPGKERELVAAITGRGGRTYYADSVKGRFTISRDNAKNTVYLQINSLKPDDTAVYYCAVRAGSAGYPKYDYWGQGTQVTLSS,polyreactivity (PSR sort gate),high polyreactivity
QVQLVESGGGLVQAGGSLRLSCGASGSIFYGYAMGWYRQAPGKERELVAAITLSGRRTYYADSVKGRFTISRDNAKNTVDSQMNTLKPEDTEVYYCAKHYPYPTEMNYWGQGTQVTVTS,polyreactivity (PSR sort gate),high polyreactivity
QVQLVESGGGLVQAGGSLRLSCAASGRIFGFYAMGWYRQAPGKEREFVAAITWSGTNTYYADSVKGRFTISRDNAKNTVYLQMNSLKPEDTAVYYCNARQYYKYGYWGQGTQVTVSS,polyreactivity (PSR sort gate),high polyreactivity
